Target: CagFbFP-I52T-Q148K (Chloroflexus aggregans) (UniProt B8GAY9)
Experiment: crystal structure

stoichiometry N: 2
Substance: CagFbFP-I52T-Q148K (from UniProt B8GAY9 47-153) (domain or fragment)

Reference: article doi:10.1101/2021.01.08.425906
